A short description of the data set: collision cross section of modified peptide (TIMS, N2, iRT-aligned); higher = larger / more extended gas-phase ion. The gist of the method: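 On a timsTOF Pro/HT (dda-PASEF, nitrogen, ~2.4 mbar), synthetic peptide pools were analysed after a 120-min nanoflow C18 separation at 60 °C and identified in MaxQuant. Three reference ions served for 1/K0 calibration, with run-wise alignment to the median iRT peptide deviation. Collision cross section comes from the Mason-Schamp equation, using the most abundant feature per charge state averaged over 1–3 technical replicates.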

The mark [1] stands for this setting: charge state: 2, modification: Butyryl.
Where [2] appears, read: charge state: 3, modification: Butyryl.
[3] abbreviates: charge state: 2, modification: Trimethyl (K).
The mark [4] stands for this setting: charge state: 3, modification: Trimethyl (K).
Where [5] appears, read: charge state: 2, modification: Propionyl.
The mark [6] stands for this setting: charge state: 2, modification: Formyl.
[7] abbreviates: charge state: 2, modification: Succinyl.
[8] abbreviates: charge state: 2, modification: Biotin.
[9] abbreviates: charge state: 2, modification: Malonyl.
Setting [10] is: charge state: 2, modification: hydroxyisobutyryl.
The mark [11] stands for this setting: charge state: 3, modification: Methyl (R).
Setting [12] is: charge state: 2, modification: Acetyl (K).
The mark [13] stands for this setting: charge state: 2, modification: Nitro (Y).
[14] abbreviates: charge state: 2, modification: GlyGly (K).
Where [15] appears, read: charge state: 3, modification: GlyGly (K).
[16] abbreviates: charge state: 2, modification: Glutarylation.
Setting [17] is: charge state: 2, modification: Crotonyl.
[18] abbreviates: charge state: 3, modification: Succinyl.
The mark [19] stands for this setting: charge state: 3, modification: hydroxyisobutyryl.
Setting [20] is: charge state: 3, modification: Malonyl.
Where [21] appears, read: charge state: 2, modification: Methyl (K).
Setting [22] is: charge state: 3, modification: Methyl (K).

± gives the standard deviation.

Data on 62 substances can be found in the supplement of paper PMC10598134.

With LDHLAEKFR [_LDHLAEK(Butyryl)FR_], the collision cross section by setting is: under setting [1], 377.54 ± 1.3 Å²; under setting [2], 440.5 ± 3.8 Å². Regarding “GTVPDDAVEALADSLGKK [_GTVPDDAVEALADSLGK(Trimethyl (K))K_]”, the collision cross section amounted to 486.05 ± 4.8 Å² under setting [3] and 534.79 ± 2.4 Å² under setting [4]. Regarding “SNEEGSEEKGPEVR [_SNEEGSEEK(Propionyl)GPEVR_]”, the collision cross section under setting [5] was determined as 404.8 ± 1.3 Å². In the case of “ASAISIKLGSSK [_ASAISIK(Trimethyl (K))LGSSK_]”, the collision cross section under setting [3] is 386.31 ± 1.1 Å² and the collision cross section under setting [4] was found to be 448.52 ± 3.3 Å². In turn, VETTVTSLKTK [_VETTVTSLK(Formyl)TK_] gave a collision cross section under setting [6] of 373.38 ± 0.89 Å². As to “GGPGSTLSFVGKR [_GGPGSTLSFVGK(Butyryl)R_]”, the collision cross section was 388.34 ± 1.3 Å² under setting [1] and 432.12 ± 3.2 Å² under setting [2]. Substance LEKTIDDLEEK [_LEK(Succinyl)TIDDLEEK_] returned a collision cross section under setting [7] of 408.25 ± 0.55 Å². Take SDDESSQKDIK [_SDDESSQK(Biotin)DIK_]: the collision cross section under setting [8] amounted to 393.46 Å². Consider GEVQVSDKER [_GEVQVSDK(Malonyl)ER_], for which the collision cross section under setting [9] stood at 362.93 ± 1.2 Å². As to “TTSYPTPRPYPKPAPSSGK [_TTSYPTPRPYPKPAPS(HexNAc (ST))SGK_]”, where the note is “charge state: 3, modification: HexNAc (ST)”, the collision cross section was determined as 526.67 Å². Regarding GSLEKGSPEDK [_GSLEK(Formyl)GSPEDK_], the collision cross section under setting [6] is recorded as 358.29 ± 0.88 Å².

For the substance “SKLLFSNTAAQK [_SK(hydroxyisobutyryl)LLFSNTAAQK_]”, the collision cross section under setting [10] amounted to 404.35 ± 0.3 Å². “GVPRGVHLGSQGLQR [_GVPR(Methyl (R))GVHLGSQGLQR_]” returned a collision cross section under setting [11] of 492.74 ± 2.1 Å². Consider YTQVGPDHNR [_Y(Phospho (Y))TQVGPDHNR_], for which the collision cross section reads like this: (charge state: 2, modification: Phospho (Y)) 363.13 ± 0.064 Å²; (charge state: 3, modification: Phospho (Y)) 430.78 Å².

In the case of LQLEIDQKK [_LQLEIDQK(Propionyl)K_], the collision cross section under setting [5] amounted to 368.05 ± 0.33 Å². On to GGRGTPGK [_GGRGTP(Hydroxyproline)GK_], for which the collision cross section (charge state: 2, modification: Hydroxyproline) is listed as 291.37 ± 3.4 Å². ITASLCDLKSR [_ITASLCDLK(Acetyl (K))SR_] showed a collision cross section under setting [12] of 383.24 ± 1.3 Å². Consider “IGNSYFKEEK [_IGNSYFK(hydroxyisobutyryl)EEK_]”, for which the collision cross section under setting [10] was 380.01 ± 0.8 Å².

Turning to “SFDEVEGVFGRGGGR [_SFDEVEGVFGR(Methyl (R))GGGR_]”, the collision cross section amounted to 429.58 ± 1.6 Å² (charge state: 2, modification: Methyl (R)) and 513.29 ± 1.2 Å² under setting [11]. Turning to “TLTPASSPVSSPSK [_TLTPASSPVSSPS(HexNAc (ST))K_]”, the collision cross section (charge state: 2, modification: HexNAc (ST)) is 404.79 Å². Regarding APEYLHR [_APEY(Nitro (Y))LHR_], the collision cross section under setting [13] amounted to 321.02 ± 1.2 Å². “FDDTNPEKEEAK [_FDDTNPEK(GlyGly (K))EEAK_]” yielded a collision cross section under setting [14] of 402.92 ± 5.6 Å² and a collision cross section under setting [15] of 486.07 ± 0.34 Å².

The substance “YEEIVKEVSTYIK [_YEEIVK(Gluratylation)EVSTYIK_]” had a collision cross section under setting [16] of 443.96 ± 1.5 Å². Regarding “SDDESSQKDIK [_SDDESSQK(Gluratylation)DIK_]”, the collision cross section under setting [16] amounted to 382.21 ± 1.1 Å².

Turning to “DLSTVEALQNLKNLK [_DLSTVEALQNLK(Crotonyl)NLK_]”, the collision cross section under setting [17] stood at 484.33 ± 1.1 Å².

As to “DSSPTTNSKLSALQR [_DSSPTTNSK(Butyryl)LSALQR_]”, the collision cross section was determined as 435.34 ± 0.76 Å² under setting [1] and 499.02 ± 1.9 Å² under setting [2]. Consider “GETASKLQSEISR [_GETASK(Butyryl)LQSEISR_]”, for which the collision cross section reads like this: under setting [1], 390.84 ± 0.85 Å²; under setting [2], 467.14 ± 2.9 Å². With “ALASIDSKLNQAK [_ALASIDSK(Succinyl)LNQAK_]”, the collision cross section was 408.18 ± 0.54 Å² under setting [7] and 477.06 Å² under setting [18].

For LQLEIDQKK [_LQLEIDQK(Trimethyl (K))K_], the collision cross section by setting is: under setting [3], 370.49 ± 1.6 Å²; under setting [4], 433.51 ± 3.7 Å². In turn, “LLIVSTTPYSEKDTK [_LLIVSTTPYSEK(Biotin)DTK_]” displayed a collision cross section under setting [8] of 480.64 Å². Turning to “VLTANSNPSSPSAAKR [_VLTANSNPSSPSAAK(Crotonyl)R_]”, the collision cross section reads like this: under setting [17], 433.68 ± 1.1 Å²; (charge state: 3, modification: Crotonyl) 528.16 ± 1.7 Å². The substance PSVSTKLISK [_PSVSTK(Butyryl)LISK_] displayed a collision cross section under setting [1] of 357.77 ± 1.8 Å². In the case of “LLFSNTAAQKLR [_LLFSNTAAQK(GlyGly (K))LR_]”, the collision cross section is reported as 433.64 ± 0.96 Å² under setting [14] and 492.29 ± 2 Å² under setting [15]. SLKLNTAEDAK [_SLK(Acetyl (K))LNTAEDAK_] returned a collision cross section under setting [12] of 373.49 ± 1.6 Å². For the substance “PGGEGPQCEKTTDVK [_PGGEGPQCEK(hydroxyisobutyryl)TTDVK_]”, the collision cross section is recorded as 425.58 ± 0.3 Å² under setting [10] and 464.88 Å² under setting [19]. In the case of “VTLEVGKVIQQGR [_VTLEVGK(Propionyl)VIQQGR_]”, the collision cross section under setting [5] was found to be 410.06 ± 0.37 Å². “GFCFITYTDEEPVKK [_GFCFITYTDEEPVK(Trimethyl (K))K_]” gave a collision cross section under setting [3] of 480.23 Å². For “TVSKVDDFLANEAK [_TVSK(Biotin)VDDFLANEAK_]”, the collision cross section under setting [8] was 445.28 ± 0.73 Å². In the case of “GTITVSAQELKDNR [_GTITVSAQELK(hydroxyisobutyryl)DNR_]”, the collision cross section is listed as 423.58 ± 0.3 Å² under setting [10] and 485.27 ± 2.8 Å² under setting [19]. In turn, YILIPASQQPK [_Y(Nitro (Y))ILIPASQQPK_] returned a collision cross section under setting [13] of 382.12 ± 0.17 Å². Take “GTISAPGKVVTAAAQAK [_GTISAPGK(Malonyl)VVTAAAQAK_]”: the collision cross section amounted to 432.93 ± 5.1 Å² under setting [9] and 519.93 ± 1.9 Å² under setting [20]. PSVSTKLISK [_PSVSTK(Formyl)LISK_] came in with a collision cross section under setting [6] of 346.92 ± 1.1 Å². As to “IHVQSSSDSSDEPAEKR [_IHVQSSSDSSDEPAEK(Formyl)R_]”, the collision cross section runs as follows: under setting [6], 447.23 Å²; (charge state: 3, modification: Formyl) 491.34 ± 2.1 Å².

For “VTLEVGKVIQQGR [_VTLEVGK(Butyryl)VIQQGR_]”, the collision cross section runs as follows: under setting [1], 412.79 ± 0.23 Å²; under setting [2], 483.04 ± 1.9 Å². On to DVNAAIAAIKTK [_DVNAAIAAIK(Succinyl)TK_], for which the collision cross section by setting is: under setting [7], 407.52 ± 0.54 Å²; under setting [18], 461.32 Å².

For “GGPGSTLSFVGKR [_GGPGSTLSFVGK(Methyl (K))R_]”, the collision cross section under setting [21] is 391.3 ± 0.92 Å² and the collision cross section under setting [22] is given as 452.34 ± 5 Å². In turn, “GGPGSTLSFVGKR [_GGPGSTLSFVGK(hydroxyisobutyryl)R_]” showed a collision cross section under setting [10] of 388.57 ± 0.81 Å². Consider VGEFSGANKEK [_VGEFSGANK(Biotin)EK_], for which, under setting [8], the collision cross section stood at 386.08 Å². In turn, TTEETSKPK [_TTEETSK(Butyryl)PK_] showed a collision cross section under setting [1] of 338.9 ± 1.2 Å². Take IGNSYFKEEK [_IGNSYFK(Methyl (K))EEK_]: the collision cross section is 373.94 ± 0.87 Å² under setting [21] and 450.33 ± 4.8 Å² under setting [22]. With “SPSDSGYSYETIGKTTK [_SPSDSGYSYETIGK(hydroxyisobutyryl)TTK_]”, the collision cross section is recorded as 457.69 ± 0.57 Å² under setting [10] and 538.76 ± 2.8 Å² under setting [19]. Regarding “FLQEFYQDDELGKK [_FLQEFYQDDELGK(GlyGly (K))K_]”, the collision cross section runs as follows: under setting [14], 460.97 ± 1.6 Å²; under setting [15], 512.67 ± 1.3 Å². “GAPGGRGAQLSVPSPAR [_GAPGGR(Citrullination (R))GAQLSVPSPAR_]” registered a collision cross section (charge state: 2, modification: Citrullination (R)) of 412.31 ± 0.55 Å². As to “IHVQSSSDSSDEPAEKR [_IHVQSSSDSSDEPAEK(Malonyl)R_]”, the collision cross section by setting is: under setting [9], 452 ± 1.6 Å²; under setting [20], 506.71 ± 1.6 Å².

In the case of “FSAYIKNSNPALNDNLEK [_FSAYIK(Succinyl)NSNPALNDNLEK_]”, the collision cross section under setting [7] was 492.09 ± 3.4 Å² and the collision cross section under setting [18] is reported as 527.54 ± 2 Å². Regarding “VLDSGAPIKIPVGPETLGR [_VLDSGAPIK(Succinyl)IPVGPETLGR_]”, the collision cross section under setting [7] was 470.32 ± 0.95 Å². ASEALLKQLK [_ASEALLK(Crotonyl)QLK_] yielded a collision cross section under setting [17] of 379.57 ± 1.1 Å². In the case of TEVNSGFFYK [_TEVNSGFFY(Nitro (Y))K_], the collision cross section under setting [13] is 367.43 ± 0.8 Å².

For the substance IQTKAGEATVK [_IQTK(Malonyl)AGEATVK_], the collision cross section under setting [9] is on record as 364.75 ± 0.62 Å². On to “ATVASSTQKFQDLGVK [_ATVASSTQK(Trimethyl (K))FQDLGVK_]”, for which the collision cross section was 475.64 ± 1.1 Å² under setting [3] and 477.04 ± 1.8 Å² under setting [4].

Take “TVSKVDDFLANEAK [_TVSK(hydroxyisobutyryl)VDDFLANEAK_]”: the collision cross section under setting [10] is 426.08 ± 0.56 Å². As to “FSAYIKNSNPALNDNLEK [_FSAYIK(Crotonyl)NSNPALNDNLEK_]”, under setting [17], the collision cross section came out at 486.61 ± 2.3 Å².
